The source of these data is patent US12109327B2, “Scaffolds from self-assembling tetrapeptides support 3D spreading, osteogenic differentiation and angiogenesis of mesenchymal stem cells” (KING ABDULLAH UNIVERSITY OF SCIENCE AND TECHNOLOGY, priority 2020, dated 2024).

Data set [1] in a line: Oscillatory rheological test of peptide hydrogel stiffness (storage modulus G′). The data set is classed as physicochemical. The settings on record: for Storage modulus: 1 rad/s, 0.1% strain. How it is done: Therefore, in one embodiment, the mechanical stiffness of each peptide hydrogel is assessed by the storage modulus (G′) at different concentrations.
The oscillatory rheological test was performed to determine the mechanical properties of the peptide hydrogels. The peptide hydrogels were measured on a TA Ares G2 rheometer with an 8 mm parallel-plate geometry and a 1.5 mm gap distance at a temperature of 22° C. All of the hydrogels were made inside a Sigmacote®-coated glass ring with 9 mm inner diameter 19 h prior to measurement. Six replicates with a volume of 150 μL were prepared for each sample. […]

The test system of a further data set is HUVECs. In words: In vitro angiogenesis study. It counts as cell-based, human. How it is done: When bone deficiency occurs, it often causes blood vessel damage. Blood vessels provide the necessary components to repair the region of bone defects by transferring oxygen and nutrients.^107, 108 In one embodiment, the capability of IVFK and IVZK hydrogels to support angiogenesis is also evaluated using HUVECs and compared with collagen, which is an essential component of the ECM and is known to support the angiogenesis of endothelial cells,^23 because the capillary system is a crucial component in bone regeneration. Viability of HUVECs in IVZK scaffold after culturing for 24 h can be observed the bright field image as shown in FIG. 45 and confocal images as shown in FIG. 46. In FIG. 46, live cells are stained in green by Calcein-AM, while dead cells are stained red by Ethidium homodimer. In FIGS. 45 and 46, the scale bar is 100 μm. Furthermore, the angiogenesis ability of IVZK scaffold is also measured by the vessels junctions (FIG. 48), number of nodes (FIG. 49) and, in total vessels length (FIG. 47) for 5 different microscopic pictures. […] In FIG. 50, the scale bar is 100 μm.
Peptide hydrogel or collagen was placed in a 24-well plate, and human umbilical vein endothelial cells (HUVECs) at 40,000 cells/well were added on top of the peptide gel or collagen. Cells were cultured in endothelial growth media for 24 h. Cells were then investigated using an inverted microscope, and images were analyzed by ImageJ using the Angiogenesis Analyzer.

The subject of data set [2] is BM-MSCs. In words: Alamar Blue cell viability assay. The data set is classed as cell-based, human. The following applies: compared to controls (2D and Matrigel). How it is done: In one embodiment, the hydrogels are screened for biocompatibility, cell attachment, and proliferation. Different concentrations of the peptides are tested for their biocompatibility of the cells within the constructs. […] Control is the cells incubated for 48 h without peptides.
The hBM-MSCs were cultured in T75 flasks and incubated in a CO2 incubator maintained at 37° ° C. with 5% CO2. Culture media were replaced every 2-3 days until the cells reached 80% confluency. Confluent cells were trypsinized and subcultured, and cells at passage 3-6 were used for the study. For the 3D culture, different peptides were sterilized by exposure to UV light for 30 min. Then, 200 μL of 3D constructs in the 48-well plate was formed by mixing the peptide solution (IVZK=3 mg/mL (5.42 mM); IVFK=4 mg/mL (7.31 mM)) with 40,000 cells suspended in 2×PBS. Culture plates were incubated for 5 min at 37° C., and the complete medium was added carefully to the culture plates. […] The morphology, cell proliferation, and mineralization of the cells in each scaffold were analyzed and compared. […]
A volume of 10 μL of Alamar blue stock solution was added to 100 μL of media in each well. […] The fluorescence was measured at an excitation wavelength of 530 nm, and the emission at 590 nm. The viability percentage was calculated against the control (2D).
Background: The colour change of resazurin is a common sign of viable cells or microbes.

The subject of data set [3] is BM-MSCs. In words: Alizarin red staining of mineralization. The data set is classed as cell-based, human. An excerpt:
Alizarin red staining (ARS) is used to detect calcium deposition. The BM-MSCs cultured in the different scaffolds in the osteogenic medium are stained by Alizarin red to confirm the mineralization process during osteogenic differentiation (FIGS. 4b and S11b). […] The scale bar in FIGS. 31 and 32 is 100 μm. […] This indicates the presence of calcium deposits.
After 14 days of culture, the media were removed and the cells were washed three times with PBS, fixed with 4% paraformaldehyde, and incubated for 15 min at room temperature.
After 14 days of culture, the media was removed and then, the cells were washed three times with PBS and then fixed with 4% paraformaldehyde and the cells incubated for 15 minutes at room temperature. Then, the cells were washed three times with Milli-Q® water. Then the Milli-Q® water was removed and 1 mL of 40 mM Alizarin Red Staining (pH=4.2) was added to each well. The scaffolds were incubated at room temperature for 20-30 min with gentle shaking. […] For the quantification of Alizarin Red Staining, 100 μL of 10% acetic acid was added to each well in a 48-well plate and incubated at room temperature for 30 minutes with gentle shaking. […] Finally, 50 μL of each tube was transferred to a 96-well plate, and the absorbance at 405 nm was read with a plate reader (PHERAstar® FS, Germany)

Where [4] appears, read: 24 h, versus collagen positive control.

For “Ac-Ile-Val-Phe-Lys-NH2 (Ac-IVFK-NH2) [aromatic self-assembling tetrapeptide forming hydrogel scaffold]”, the stiffness result in data set [1] (peptide concentration 4 mg/mL) is “around 20 kPa”; in data set [1] (peptide concentration 8 mg/mL), around 50 kPa. In addition, the Storage modulus is recorded as 0.54 ± 0.06 kPa in data set [1] (peptide hydrogel 2 mg/mL); 7.03 ± 0.19 kPa in data set [1] (peptide hydrogel 3 mg/mL); 23.40 ± 0.88 kPa in data set [1] (peptide hydrogel 4 mg/mL); 35.79 ± 0.95 kPa in data set [1] (peptide hydrogel 6 mg/mL); 51.79 ± 4.73 kPa in data set [1] (peptide hydrogel 8 mg/mL). The junctions result in the data set with HUVECs (setting [4]) is reported as “no significant difference”. The nodes entry in the data set on HUVECs (setting [4]) is on record as “no significant difference”. In addition, the “total length of tubes” value in the data set on HUVECs (setting [4]) is recorded as “no significant difference”. For the same substance, the “network formation of HUVECs” value with HUVECs (after 24 h of culture) was “forms dense network structures”. The “cell growth (Alamar Blue)” value with BM-MSCs [2] is on record as “significant increase in cell growth compared to both controls”. The “calcium content (Alizarin red-S quantification)” value with BM-MSCs [3] (hydrogel around 20 kPa (4 mg/mL) versus 50 kPa (8 mg/mL)) was “significantly higher calcium content than that at 50 kPa”. Further, the “Alizarin red-S (ARS) staining of mineral deposits” value with BM-MSCs [3] (osteogenic medium, compared to the other scaffolds) is reported as “most intense ARS staining”.
